Laboratory results reported in PMC4427162.

Experiments:
[1] = target: Leishmania major tubulin-binding cofactor A (Leishmania major Friedlin); test: MALDI-TOF mass spectrometry; sample that was used for crystallization (the approx. 27 kDa gel-filtration peak)
[2] = target: Leishmania major tubulin-binding cofactor A (Leishmania major Friedlin); test: SEC; calibrated Superdex 75 26/60 column, 50 mM Tris-HCl, 250 mM NaCl pH 7.5, no reducing agent

Leishmania major tubulin-binding cofactor A (natural protein)
stoichiometry N [1]: 2 | stoichiometry N [2]: 2
